From the Immune Epitope Database (IEDB)
Values belong to the sequence of their own block, whether it stands above or below them.

Experiments:
HLA-A*02:16 = assay: IEDB peptide-MHC binding, purified MHC/direct/fluorescence; filed as Kd, often an IC50 or EC50 that approximates it; ≥ and ≤ were set here for values at or beyond the usual limits of such assays
HLA-A*02:03 = assay: as above
HLA-A*24:03 = assay: as above
HLA-A*02:19 = assay: as above
HLA-A*23:01 = assay: as above
HLA-A*03:01 = assay: as above
HLA-A*29:02 = assay: as above
HLA-A*02:11 = assay: as above
HLA-A*68:02 = assay: as above
HLA-A*02:12 = assay: as above
HLA-B*27:03 = assay: IEDB peptide-MHC binding, purified MHC/competitive/fluorescence; filed as Kd, often an IC50 or EC50 that approximates it; ≥ and ≤ were set here for values at or beyond the usual limits of such assays
HLA-A*69:01 [1] = assay: as above
HLA-B*51:01 = assay: as above
HLA-B*15:01 [2] = assay: as above
HLA-B*18:01 = assay: as above
HLA-B*57:01 = assay: as above
HLA-B*46:01 = assay: as above
HLA-B*39:01 = assay: as above
HLA-A*26:01 [3] = assay: as above
HLA-A*31:01 [4] = assay: as above; settings: source organism: Zaire ebolavirus
HLA-A*02:01 [5] = assay: as above
HLA-B*15:17 = assay: as above; settings: source organism: Zaire ebolavirus
HLA-B*08:01 [6] = assay: as above
HLA-B*27:05 = assay: IEDB peptide-MHC binding, purified MHC/direct/fluorescence; filed as Kd, often an IC50 or EC50 that approximates it; ≥ and ≤ were set here for values at or beyond the usual limits of such assays
HLA-A*01:01 = assay: as above
HLA-A*69:01 [7] = assay: as above
HLA-A*11:01 = assay: as above
HLA-B*58:01 = assay: as above
HLA-A*30:01 = assay: as above
HLA-B*15:01 [8] = assay: as above
HLA-B*08:01 [9] = assay: as above
HLA-B*44:02 = assay: as above
HLA-B*40:01 = assay: as above
HLA-A*26:01 [10] = assay: as above
HLA-B*07:02 = assay: as above
HLA-A*02:01 [11] = assay: as above
HLA-A*31:01 [12] = assay: as above
HLA-B*35:01 = assay: IEDB peptide-MHC binding, purified MHC/competitive/fluorescence; filed as Kd, often an IC50 or EC50 that approximates it; ≥ and ≤ were set here for values at or beyond the usual limits of such assays
[13] = source organism: Ravn virus - Ravn, Kenya, 1987
[14] = source organism: Zaire ebolavirus
[15] = source organism: Giardia lamblia ATCC 50803
[16] = source organism: Campylobacter jejuni
[17] = source organism: Escherichia coli 536
[18] = source organism: Escherichia coli
[19] = source organism: Orthohantavirus sinnombreense
[20] = source organism: Pseudomonas aeruginosa UCBPP-PA14
[21] = source organism: Pseudomonas aeruginosa

Sequence: HSGFIYFGK
Kd (HLA-A*02:16; [13]): ≥ 20 µM | Kd (HLA-A*02:03; [13]): ≥ 20 µM | Kd (HLA-A*24:03; [13]): ≥ 20 µM | Kd (HLA-A*02:19; [13]): ≥ 20 µM | Kd (HLA-A*23:01; [13]): ≥ 20 µM | Kd (HLA-A*03:01; source organism: Sudan ebolavirus - Uganda (2000)): 3.47 µM | Kd (HLA-A*29:02; [13]): ≥ 20 µM | Kd (HLA-A*02:11; [13]): ≥ 20 µM | Kd (HLA-A*68:02; [13]): ≥ 20 µM | Kd (HLA-A*02:12; [13]): ≥ 20 µM | Kd (HLA-B*27:03; [14]): ≥ 20 µM | Kd (HLA-A*69:01 [1]; [14]): ≥ 20 µM | Kd (HLA-B*51:01; [14]): ≥ 20 µM | Kd (HLA-B*15:01 [2]; [14]): ≥ 20 µM | Kd (HLA-B*18:01; [14]): ≥ 20 µM | Kd (HLA-B*57:01; [14]): ≥ 20 µM | Kd (HLA-B*46:01; [14]): ≥ 20 µM | Kd (HLA-B*39:01; [14]): ≥ 20 µM | Kd (HLA-A*26:01 [3]; [14]): ≥ 20 µM | Kd (HLA-A*31:01 [4]): 0.797 µM | Kd (HLA-A*02:01 [5]; [14]): ≥ 20 µM | Kd (HLA-B*15:17): ≥ 20 µM

Kd (HLA-B*08:01 [6]; source organism: Escherichia coli O139:H28 str. E24377A): ≥ 20 µM
Sequence: HPKRTERAG

Sequence: VYAYPSGEK
Kd (HLA-B*27:05; [15]): ≥ 20 µM | Kd (HLA-A*01:01; [15]): ≥ 20 µM | Kd (HLA-A*69:01 [7]; [15]): ≥ 20 µM | Kd (HLA-A*11:01; [15]): 7.74 µM | Kd (HLA-B*58:01; [15]): ≥ 20 µM | Kd (HLA-A*24:03; [15]): ≥ 20 µM | Kd (HLA-A*30:01; [15]): 4.7 µM | Kd (HLA-B*15:01 [8]; [15]): ≥ 20 µM | Kd (HLA-B*08:01 [9]; [15]): ≥ 20 µM | Kd (HLA-B*44:02; [15]): ≥ 20 µM | Kd (HLA-B*40:01; [15]): ≥ 20 µM | Kd (HLA-A*03:01; [15]): 3.37 µM | Kd (HLA-A*26:01 [10]; [15]): ≥ 20 µM | Kd (HLA-B*07:02; [15]): ≥ 20 µM | Kd (HLA-A*02:01 [11]; [15]): ≥ 20 µM

Sequence: VKKLWGHLP
Kd (HLA-B*27:05; [16]): ≥ 20 µM | Kd (HLA-A*01:01; [16]): ≥ 20 µM | Kd (HLA-A*69:01 [7]; [16]): ≥ 20 µM | Kd (HLA-A*11:01; [16]): ≥ 20 µM | Kd (HLA-B*58:01; [16]): ≥ 20 µM | Kd (HLA-A*24:03; [16]): ≥ 20 µM | Kd (HLA-A*30:01; [16]): ≥ 20 µM | Kd (HLA-B*15:01 [8]; [16]): ≥ 20 µM | Kd (HLA-B*44:02; [16]): ≥ 20 µM | Kd (HLA-B*40:01; [16]): ≥ 20 µM | Kd (HLA-A*03:01; [16]): ≥ 20 µM | Kd (HLA-A*26:01 [10]; [16]): ≥ 20 µM | Kd (HLA-A*31:01 [12]; [16]): ≥ 20 µM | Kd (HLA-A*02:01 [11]; [16]): ≥ 20 µM

Kd (HLA-B*15:01 [2]; [17]): ≥ 20 µM | Kd (HLA-B*08:01 [6]; [17]): 0.0452 µM | Kd (HLA-A*02:01 [5]; [17]): 0.0146 µM
Sequence: WLLLRQLPI

Sequence: QTEPKTSVV
Kd (HLA-A*01:01; source organism: Ebola virus - Eckron (Zaire, 1976)): 16.4 µM | Kd (HLA-A*02:03; [14]): ≥ 20 µM | Kd (HLA-A*24:03; [14]): ≥ 20 µM | Kd (HLA-A*02:19; [14]): ≥ 20 µM | Kd (HLA-A*23:01; [14]): ≥ 20 µM | Kd (HLA-A*03:01; [14]): ≥ 20 µM | Kd (HLA-A*29:02; [14]): ≥ 20 µM | Kd (HLA-A*02:11; [14]): ≥ 20 µM | Kd (HLA-A*68:02; [14]): ≥ 20 µM | Kd (HLA-A*02:12; [14]): ≥ 20 µM | Kd (HLA-B*27:03; [14]): ≥ 20 µM | Kd (HLA-B*51:01; [14]): ≥ 20 µM | Kd (HLA-B*15:01 [2]; [14]): ≥ 20 µM | Kd (HLA-B*18:01; [14]): ≥ 20 µM | Kd (HLA-B*57:01; [14]): ≥ 20 µM | Kd (HLA-B*46:01; [14]): ≥ 20 µM | Kd (HLA-B*39:01; [14]): ≥ 20 µM | Kd (HLA-A*26:01 [3]; [14]): ≥ 20 µM | Kd (HLA-A*02:01 [5]; [14]): ≥ 20 µM | Kd (HLA-B*15:17): ≥ 20 µM

Sequence: GPGEVSAAM
Kd (HLA-B*07:02; source organism: Mycobacterium tuberculosis str. Haarlem): 0.146 µM | Kd (HLA-B*35:01; source organism: Mycobacterium tuberculosis variant bovis BCG str. Pasteur 1173P2): 0.0039 µM

Kd (HLA-B*27:05; [18]): ≥ 20 µM | Kd (HLA-A*01:01; [18]): ≥ 20 µM | Kd (HLA-A*69:01 [7]; [18]): ≥ 20 µM | Kd (HLA-A*11:01; [18]): ≥ 20 µM | Kd (HLA-B*58:01; [18]): ≥ 20 µM | Kd (HLA-A*24:03; [18]): 13.8 µM | Kd (HLA-A*30:01; [18]): ≥ 20 µM | Kd (HLA-B*15:01 [8]; [18]): ≥ 20 µM | Kd (HLA-B*08:01 [9]; [18]): ≥ 20 µM | Kd (HLA-B*40:01; [18]): ≥ 20 µM | Kd (HLA-A*03:01; [18]): ≥ 20 µM | Kd (HLA-A*26:01 [10]; [18]): ≥ 20 µM | Kd (HLA-A*31:01 [12]; [18]): ≥ 20 µM | Kd (HLA-B*07:02; [18]): 4.68 µM | Kd (HLA-A*02:01 [11]; [18]): ≥ 20 µM | Kd (HLA-B*35:01; source organism: Escherichia coli str. K-12 substr. MG1655): ≥ 5 µM
Sequence: WCRVGRGTI

Sequence: WSHRVTSPK
Kd (HLA-A*01:01; source organism: Vibrio cholerae): ≥ 20 µM | Kd (HLA-A*30:01; source organism: Vibrio cholerae V52): 0.05 µM

Sequence: HTVGLGQGY
Kd (HLA-A*01:01; source organism: Orthohantavirus andesense): ≥ 5 µM | Kd (HLA-A*02:16; source organism: Choclo virus): ≥ 20 µM | Kd (HLA-A*02:03; source organism: Choclo virus): ≥ 20 µM | Kd (HLA-A*24:03; source organism: Choclo virus): ≥ 20 µM | Kd (HLA-A*02:19; source organism: Choclo virus): ≥ 20 µM | Kd (HLA-A*23:01; source organism: Choclo virus): ≥ 20 µM | Kd (HLA-A*03:01; source organism: Choclo virus): ≥ 20 µM | Kd (HLA-A*02:11; source organism: Choclo virus): ≥ 20 µM | Kd (HLA-A*02:12; source organism: Choclo virus): ≥ 20 µM | Kd (HLA-B*27:03; [19]): ≥ 20 µM | Kd (HLA-A*69:01 [1]; [19]): ≥ 20 µM | Kd (HLA-B*51:01; [19]): ≥ 20 µM | Kd (HLA-B*18:01; [19]): ≥ 20 µM | Kd (HLA-B*57:01; [19]): ≥ 20 µM | Kd (HLA-B*46:01; [19]): ≥ 20 µM | Kd (HLA-B*39:01; [19]): ≥ 20 µM | Kd (HLA-A*26:01 [3]; [19]): 0.0021 µM | Kd (HLA-A*02:01 [5]; [19]): ≥ 20 µM

Kd (HLA-B*27:05; [20]): ≥ 20 µM | Kd (HLA-A*01:01; [20]): ≥ 20 µM | Kd (HLA-A*69:01 [7]; [20]): ≥ 20 µM | Kd (HLA-A*11:01; [21]): 8.65 µM | Kd (HLA-B*58:01; [20]): ≥ 20 µM | Kd (HLA-A*24:03; [20]): ≥ 20 µM | Kd (HLA-A*30:01; [21]): 2.01 µM | Kd (HLA-B*15:01 [8]; [20]): ≥ 20 µM | Kd (HLA-B*08:01 [9]; [20]): ≥ 20 µM | Kd (HLA-B*40:01; [20]): ≥ 20 µM | Kd (HLA-A*03:01; [21]): 3.44 µM | Kd (HLA-A*26:01 [10]; [20]): ≥ 20 µM | Kd (HLA-A*31:01 [12]; [21]): 0.046 µM | Kd (HLA-B*07:02; [20]): ≥ 20 µM | Kd (HLA-A*02:01 [11]; [20]): ≥ 20 µM
Sequence: RDYRTISPR
